Tests used:
CFMO = molecular target: T1, CFMO (Cellvibrio sp. BR, UniProt I3IEE4); test: X-ray crystal structure, […] Å; assay type: binding; details: oxidised FAD at domain interface; co-purified; non-cleaved His-tagged protein
T1 construct: gene O59_000450; 361 aa; codon-optimised gene in pET-YSBL-LIC-3C, N-terminal 3C-cleavable His6 tag (crystals: non-cleaved protein), E. coli BL21(DE3); dimer
T1 sequence (I3IEE4 1-361): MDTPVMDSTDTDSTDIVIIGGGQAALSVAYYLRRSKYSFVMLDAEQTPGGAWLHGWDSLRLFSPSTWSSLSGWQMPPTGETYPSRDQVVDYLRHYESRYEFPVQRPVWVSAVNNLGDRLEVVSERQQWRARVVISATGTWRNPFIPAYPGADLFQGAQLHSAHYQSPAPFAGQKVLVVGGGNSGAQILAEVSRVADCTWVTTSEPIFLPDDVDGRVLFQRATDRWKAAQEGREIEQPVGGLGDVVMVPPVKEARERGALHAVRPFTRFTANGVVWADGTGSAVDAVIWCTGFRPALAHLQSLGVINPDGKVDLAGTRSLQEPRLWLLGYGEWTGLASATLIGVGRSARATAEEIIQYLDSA

PSFMO = molecular target: T2, PSFMO (Stutzerimonas stutzeri, UniProt M2V3J0); test: X-ray crystal structure, […] Å; assay type: binding; details: oxidised FAD; co-purified; tag-cleaved protein
T2 construct: gene B381_09411; 358 aa; codon-optimised gene in pET-YSBL-LIC-3C, N-terminal 3C-cleavable His6 tag (crystals: tag cleaved, linker Gly-2 Pro-1 Ala0 seen), E. coli BL21(DE3)
T2 sequence (M2V3J0 1-358): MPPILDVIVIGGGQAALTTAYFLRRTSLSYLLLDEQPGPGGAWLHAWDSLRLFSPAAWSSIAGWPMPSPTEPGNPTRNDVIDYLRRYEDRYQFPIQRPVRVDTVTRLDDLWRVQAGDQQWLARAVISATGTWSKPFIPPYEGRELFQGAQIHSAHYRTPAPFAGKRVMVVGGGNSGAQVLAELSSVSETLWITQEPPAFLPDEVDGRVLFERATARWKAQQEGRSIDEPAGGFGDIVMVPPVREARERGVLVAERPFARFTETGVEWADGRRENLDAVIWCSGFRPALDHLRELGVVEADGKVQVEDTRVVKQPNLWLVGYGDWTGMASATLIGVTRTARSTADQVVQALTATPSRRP

purified protein [1] = substrate: NC(=O)C1=CN([C@@H]2O[C@H](COP(=O)(O)OP(=O)(O)OC[C@H]3O[C@@H](n4cnc5c(N)ncnc54)[C@H](O)[C@@H]3O)[C@@H](O)[C@H]2O)C=CC1; test: purified protein; assay type: biochemical, Cellvibrio sp. BR; details: Tris-HCl pH 7.5, 3.9 nmol enzyme in 1 mL, NADH 10-100 μM
purified protein [2] = substrate: NC(=O)C1=CN([C@@H]2O[C@H](COP(=O)(O)OP(=O)(O)OC[C@H]3O[C@@H](n4cnc5c(N)ncnc54)[C@H](OP(=O)(O)O)[C@@H]3O)[C@@H](O)[C@H]2O)C=CC1; test: purified protein; assay type: biochemical, Cellvibrio sp. BR; details: Tris-HCl pH 7.5, 3.9 nmol enzyme in 1 mL, NADPH 10-100 μM
purified protein [3] = substrate: NC(=O)C1=CN([C@@H]2O[C@H](COP(=O)(O)OP(=O)(O)OC[C@H]3O[C@@H](n4cnc5c(N)ncnc54)[C@H](O)[C@@H]3O)[C@@H](O)[C@H]2O)C=CC1; test: purified protein; assay type: biochemical, Stutzerimonas stutzeri; details: Tris-HCl pH 7.5, 3.9 nmol enzyme in 1 mL, NADH 10-100 μM
purified protein [4] = substrate: NC(=O)C1=CN([C@@H]2O[C@H](COP(=O)(O)OP(=O)(O)OC[C@H]3O[C@@H](n4cnc5c(N)ncnc54)[C@H](OP(=O)(O)O)[C@@H]3O)[C@@H](O)[C@H]2O)C=CC1; test: purified protein; assay type: biochemical, Stutzerimonas stutzeri; details: Tris-HCl pH 7.5, 3.9 nmol enzyme in 1 mL, NADPH 10-100 μM
[5] = molecular target: the molecule itself; test: SEC; size-exclusion studies of PSFMO (not shown)

Cc1cc2nc3c(=O)[nH]c(=O)nc-3n(C[C@H](O)[C@H](O)[C@H](O)COP(=O)(O)OP(=O)(O)OC[C@H]3O[C@@H](n4cnc5c(N)ncnc54)[C@H](O)[C@@H]3O)c2cc1C [FAD]
X-ray crystal structure, 2.39 Å (CFMO): This was successfully modelled and refined as FAD in the flat, oxidised form | X-ray crystal structure, 1.83 Å (PSFMO): FAD was again clearly visible in the omit map after building and refinement

B1: CFMO (Cellvibrio sp. BR) (protein)
chain: MDTPVMDSTDTDSTDIVIIGGGQAALSVAYYLRRSKYSFVMLDAEQTPGGAWLHGWDSLRLFSPSTWSSLSGWQMPPTGETYPSRDQVVDYLRHYESRYEFPVQRPVWVSAVNNLGDRLEVVSERQQWRARVVISATGTWRNPFIPAYPGADLFQGAQLHSAHYQSPAPFAGQKVLVVGGGNSGAQILAEVSRVADCTWVTTSEPIFLPDDVDGRVLFQRATDRWKAAQEGREIEQPVGGLGDVVMVPPVKEARERGALHAVRPFTRFTANGVVWADGTGSAVDAVIWCTGFRPALAHLQSLGVINPDGKVDLAGTRSLQEPRLWLLGYGEWTGLASATLIGVGRSARATAEEIIQYLDSA
notes: 361 aa; codon-optimised gene in pET-YSBL-LIC-3C, N-terminal 3C-cleavable His6 tag (crystals: non-cleaved protein), E. coli BL21(DE3); dimer
Km (purified protein [1]): 3 ± 1 µM | kcat (purified protein [1]): 0.02 s⁻¹ | kcat/Km (purified protein [1]): 6670 M⁻¹ s⁻¹ | Km (purified protein [2]): 5 ± 1 µM | kcat (purified protein [2]): 0.02 s⁻¹ | kcat/Km (purified protein [2]): 4000 M⁻¹ s⁻¹

B2: Flavin-containing monooxygenase from Pseudomonas stutzeri NF13 (PSFMO), as used in size-exclusion studies (enzyme, UniProt M2V3J0 1-358, looked up)
chain: MPPILDVIVIGGGQAALTTAYFLRRTSLSYLLLDEQPGPGGAWLHAWDSLRLFSPAAWSSIAGWPMPSPTEPGNPTRNDVIDYLRRYEDRYQFPIQRPVRVDTVTRLDDLWRVQAGDQQWLARAVISATGTWSKPFIPPYEGRELFQGAQIHSAHYRTPAPFAGKRVMVVGGGNSGAQVLAELSSVSETLWITQEPPAFLPDEVDGRVLFERATARWKAQQEGRSIDEPAGGFGDIVMVPPVREARERGVLVAERPFARFTETGVEWADGRRENLDAVIWCSGFRPALDHLRELGVVEADGKVQVEDTRVVKQPNLWLVGYGDWTGMASATLIGVTRTARSTADQVVQALTATPSRRP
notes: PSFMO, putative FMO from Pseudomonas stutzeri NF13, Uniprot M2V3J0, 358 amino acids; synthetic gene amplified with primers from the ATG start codon to the stop codon; Same construct as m2
Km (purified protein [3]): 16 ± 2 µM | kcat (purified protein [3]): 0.03 s⁻¹ | kcat/Km (purified protein [3]): 1880 M⁻¹ s⁻¹ | Km (purified protein [4]): 17 ± 2.0 µM | kcat (purified protein [4]): 0.04 s⁻¹ | kcat/Km (purified protein [4]): 2350 M⁻¹ s⁻¹ | stoichiometry N [5]: 2

Reference: PMC4220118, “Exploring nicotinamide cofactor promiscuity in NAD(P)H-dependent flavin containing monooxygenases (FMOs) using natural variation within the phosphate binding loop. Structure and activity of FMOs from Cellvibrio sp. BR and Pseudomonas stutzeri NF13” (Journal of Molecular Catalysis. B, Enzymatic, 2014)
